Test results reported in PMC3978094.
Read-outs that look alike come from different tables or passages of the source.

How the values were obtained:
[1] = target: T1, GATA3 DBD (N- and C-finger) (human, UniProt P23771-2 260-370); assay: crystal structure
[2] = target: T1, GATA3 DBD (N- and C-finger); assay: SPR
[3] = target: T1, GATA3 DBD (N- and C-finger); assay: SPR; remark: listed apart in the source
[4] = target: T1, GATA3 DBD (N- and C-finger); assay: crystal structure; remark: listed apart in the source

B1: Complex 1 palindromic GATA site, 1-bp spacer, 20-mer (dsDNA)
DNA 1: AATGTCCATCTGATAAGACG
DNA 2: CGTCTTATCAGATGGACATT
B1: binds [1].

B2: palindromic GATA site SPR probe (dsDNA)
DNA 1: CTCCCGCTCGCTATCAGATAAGGCCTTAT
DNA 2: ATAAGGCCTTATCTGATAGCGAGCGGGAG
B2 gave a Kd [2] of roughly 6 nM.

B3: single GATA site SPR probe (dsDNA)
DNA 1: CTCCCGCTCGCTCAGAGATAAGGCCTTAT
DNA 2: ATAAGGCTTTATCTCTGAGCGAGCGGGAG
In the case of B3, the Kd [3] is reported as roughly 60 nM.

B4: Complex 2/3 palindromic GATA site, 3-bp spacer, 20-mer (dsDNA)
DNA 1: TTCCTAAATCAGAGATAACC
DNA 2: GGTTATCTCTGATTTAGGAA
B4: binds [4].
